Measurements: patent publication US11331368B2, “Angiotensin receptor agonists and uses thereof” (Monash University, priority 2017, dated 2022)
Square brackets hold non-standard residues; d marks the D form. Primed or numbered codes have the meaning given here. Ends that are not written are not given here. * marks the point of attachment. Cholyl = C[C@H](CCC(=O)*)[C@H]1CC[C@H]2[C@@H]3[C@H](O)C[C@@H]4C[C@H](O)CC[C@]4(C)[C@H]3C[C@H](O)[C@]12C; βPhe = beta-form phenylalanine; βArg = beta-form arginine; βTyr = beta-form tyrosine; βPro = beta-form proline; βVal″ = beta-form valine

Tests used:
human AT2R = molecular target: T1, human AT2R (Homo sapiens, UniProt P50052); experiment: Competition radioligand binding (125I-Sar1-Ile8-AngII) in AT2R-transfected HEK-293 cells; conditions: AT2R over AT1R, Table 3
T1 construct: expressed in transfected cells
T1 sequence (P50052 1-363): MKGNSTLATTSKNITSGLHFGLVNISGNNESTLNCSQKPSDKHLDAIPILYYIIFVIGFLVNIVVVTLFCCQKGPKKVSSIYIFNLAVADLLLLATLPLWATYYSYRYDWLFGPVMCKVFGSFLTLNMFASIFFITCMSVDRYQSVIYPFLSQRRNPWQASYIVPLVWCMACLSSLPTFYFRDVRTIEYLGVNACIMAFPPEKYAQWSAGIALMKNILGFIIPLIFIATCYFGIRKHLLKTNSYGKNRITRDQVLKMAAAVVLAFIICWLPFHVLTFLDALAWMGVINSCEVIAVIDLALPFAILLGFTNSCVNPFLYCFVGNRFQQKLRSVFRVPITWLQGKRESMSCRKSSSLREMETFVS

[1] = molecular target: T2, human Angiotensin II Receptor Type 2 (AT2R) (human, UniProt P50052 1-363); experiment: competition radioligand binding on HEK-293 cells with AT2R; competitor [125I]-Sar1Ile8Ang II
T2 construct: whole, on cells; also endogenous on human cardiac fibroblasts (functional entries); also called AT2 receptor
T2 sequence (looked up): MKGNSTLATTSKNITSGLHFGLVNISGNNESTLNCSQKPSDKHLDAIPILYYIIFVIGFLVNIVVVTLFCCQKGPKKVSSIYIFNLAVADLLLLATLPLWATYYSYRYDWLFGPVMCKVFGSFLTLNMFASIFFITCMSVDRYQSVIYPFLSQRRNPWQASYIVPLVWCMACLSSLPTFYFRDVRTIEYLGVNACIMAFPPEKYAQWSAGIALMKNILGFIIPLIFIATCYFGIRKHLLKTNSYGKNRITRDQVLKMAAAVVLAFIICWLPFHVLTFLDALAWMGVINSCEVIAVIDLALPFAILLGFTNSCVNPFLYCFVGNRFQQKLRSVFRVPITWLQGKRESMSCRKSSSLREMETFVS
Protocol: For each experiment, each ligand concentration was tested in duplicate or triplicate, and each experiment was repeated at least 3 separate times.

Molecule	Fold AT2R selectivity (human AT2R)	IC50 [1]
RV[βTyr]IHPF-OH (synthetic peptide; also called Arg-Val-β-Tyr-Ile-His-Pro-Phe) [βTyr-Ang III]	–	1.82 nM
Ac-RVYIH[βPro]W-OH (synthetic peptide; also called N-Ac-β-Pro^7-Trp^8-Ang III; N-Ac-Pro^7-Trp^8-Ang III) [NAc-βPro-Trp-8-Ang III]	–	0.34 nM
Cholyl-RVYIH[βPro]F-OH (synthetic peptide; also called Cholate-Arg-Val-Tyr-Ile-His-β-Pro-Phe) [Cholic Acid-βPro-Ang III]	–	0.05 nM
[dR]VYIHPF-OH (synthetic peptide; also called D-Arg-Val-Tyr-Ile-His-Pro-Phe) [D-Arg-Ang III]	–	25 nM
nicotinamido-RVYIH[βPro]F-OH (synthetic peptide; also called Nicotinamido-Arg-Val-Tyr-Ile-His-β-Pro-Phe) [Nic-βPro-Ang III]	–	0.12 nM

Next, values leading:

Fold AT2R selectivity (human AT2R)	IC50 [1]	Molecule
1854 fold	–	β-Arg-Val-Tyr-Ile-His-Pro-Trp [βArg-Trp-8-Ang III]
–	6.5 nM	[βArg]VYIHPA-OH (synthetic peptide; also called β-Arg-Val-Tyr-Ile-His-Pro-Ala) [βArg-Ala-8-Ang III]
–	0.384 nM	RV[βTyr]IHPW-OH (synthetic peptide; also called β-Tyr^4-Trp^8-Ang III; β-Tyro-Trp^8-Ang III) [βTyr-Trp-8-Ang III]
–	20.3 nM	RVYIHP[βPhe]-OH (synthetic peptide; also called Arg-Val-Tyr-Ile-His-Pro-β-Phe) [βPhe-Ang III]
–	8.1 nM	R[βVal″]YIHPA-OH (synthetic peptide; also called Arg-β-Val-Tyr-Ile-His-Pro-Ala) [βVal-Ala-8-Ang III]
–	12.5 nM	D[βArg]VYIHPA-OH (synthetic peptide; also called Asp-β-Arg-Val-Tyr-Ile-His-Pro-Ala) [βArg-Ala-8-Ang II]
